Source: article doi:10.1101/2024.04.22.590578

Target: SARS-CoV-2 main protease (M^pro), wild type (SARS-CoV-2)
Test: crystal structure

SARS-CoV-2 main protease (M^pro), wild type (enzyme)
stoichiometry N: 2
